B1: STK4 (residues 1–326) K59R [human] / HOIP (residues 854–1072) [not stated] (parent complex)
chain 1: METVQLRNPPRRQLKKLDEDSLTKQPEEVFDVLEKLGEGSYGSVYKAIHKETGQIVAIRQVPVESDLQEIIKEISIMQQCDSPHVVKYYGSYFKNTDLWIVMEYCGAGSVSDIIRLRNKTLTEDEIATILQSTLKGLEYLHFMRKIHRDIKAGNILLNTEGHAKLADFGVAGQLTDTMAKRNTVIGTPFWMAPEVIQEIGYNCVADIWSLGITAIEMAEGKPPYADIHPMRAIFMIPTNPPPTFRKPELWSDNFTDFVKQCLVKSPEQRATATQLLQHPFVRSAKGVSILRDLINEAMDVKLKRQESQQREVDQDDEENSEEDEMD
chain 2: EYQAQGLAMYLQENGIDCPKCKFSYALARGGCMHFHCTQCRHQFCSGCYNAFYAKNKCPEPNCRVKKSLHGHHPRDCLFYLRDWTALRLQKLLQDNNVMFNTEPPAGARAVPGGGCRVIEQKEVPNGLRDEACGKETPAGYAGLCQAHYKEYLVSLINAHSLDPATLYEVEELETATERYLHVRPQPLAGEDPPAYQARLLQKLTEEVPLGQSIPRRRK

As a reminder, the Kd is a measure of binding affinity in units of concentration.

In this experiment the parent is B1. The experiment in a line: ITC. In general terms: ITC needs no label: the signal is the heat of the interaction.
As for chain 1 R231E, the Kd turned out to be 97.9 µM.

The values are drawn from article PMC12441119 (2025).
